According to patent US20190351025A1 (HUDSON INSTITUTE OF MEDICAL RESEARCH, published 2019):
Values belong to the molecule of their own block, whether it stands above or below them.

What was measured:
[1] = biological target: mIFNAR2-ECD C94S (extracellular domain of mouse IFNAR2, His-tagged) (mouse) (UniProt O35664); assay: SPR, ProteOn XPR36, His-tagged receptor on HTG chip, Langmuir model, mean of 10 experiments
huIFNAR2 [2] = biological target: T1, huIFNAR2 (human, UniProt P48551 27-243, limits assumed); assay: microscale thermophoresis (MST)
T1 sequence (looked up): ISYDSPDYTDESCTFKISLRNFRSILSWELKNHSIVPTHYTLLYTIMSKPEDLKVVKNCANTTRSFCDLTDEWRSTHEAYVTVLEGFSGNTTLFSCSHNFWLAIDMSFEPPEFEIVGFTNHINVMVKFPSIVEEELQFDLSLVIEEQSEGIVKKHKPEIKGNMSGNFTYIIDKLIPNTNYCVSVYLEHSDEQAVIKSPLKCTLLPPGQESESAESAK

[3] = biological target: T2, mIFNAR1-ECD (extracellular domain of mouse IFNAR1, His-tagged) (mouse, UniProt P33896 27-429); assay: SPR, ProteOn XPR36, His-tagged receptor on HTG chip, Langmuir model, n=10 experiments
T2 construct: extracellular domain; The tag is placed at the C-terminus here only for lack of information; not shown: His-tag
T2 sequence (looked up): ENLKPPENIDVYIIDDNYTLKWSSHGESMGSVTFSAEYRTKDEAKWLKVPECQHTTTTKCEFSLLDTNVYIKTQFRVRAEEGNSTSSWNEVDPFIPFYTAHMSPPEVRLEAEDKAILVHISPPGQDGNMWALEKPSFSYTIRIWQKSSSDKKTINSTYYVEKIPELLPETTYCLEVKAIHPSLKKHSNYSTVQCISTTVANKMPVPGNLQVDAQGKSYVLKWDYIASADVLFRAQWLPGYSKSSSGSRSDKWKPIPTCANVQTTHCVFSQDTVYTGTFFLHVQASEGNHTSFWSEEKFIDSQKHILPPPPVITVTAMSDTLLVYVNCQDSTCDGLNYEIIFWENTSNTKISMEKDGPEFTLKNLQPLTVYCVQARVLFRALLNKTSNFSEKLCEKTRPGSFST
Protocol: (§1) For Surface Plasmon Resonance (SPR), mIFNAR1-ECD and rmIFN were expressed and purified from mammalian cell and insect cell culture, respectively, as previously described (Stifter et al. (2014) Protein Expr Purif 94:7-14); mIFNAR2-ECDC94S and rmIFN 1 were expressed and purified from mammalian cell culture also as previously described (de Weerd et al. (2013) supra). huIFNε is produced in a similar manner All SPR experiments were carried out on a ProteOn XPR36 (Bio-Rad Labs) using a HTG chip for His-tagged proteins and TBS as the running buffer. mIFNAR1-ECD and mIFNAR2-ECDC94S were immobilized to the nickel activated chip via the His-tags after dilution to […] in TBS. All IFNs (rmIFN 1, rmIFN and rmIFN) were diluted in TBS to various concentrations ranging from 40 nM to […]. All data were referenced according to the manufacturer's instructions (Bio-Rad) and analyzed using the Langmuir binding model. Data were considered for inclusion in the analysis only if the Chit value (the measure of error between measured and fitted values) was less than 10% of the Rₘₐₓ as per the manufacturer's instructions (Bio-Rad). Kₐ (1/Ms), Kd (1/s) and KD (nM) were calculated by the ProteOn Manager software and are represented as mean (+SD) from at least triplicate experiments. Significance was determined using one-way ANOVA with Dunnett's multiple comparisons testing. […]

huIFNAR2 [4] = biological target: T1, huIFNAR2; assay: microscale thermophoresis (MST), E. coli expressed huIFNε
[5] = biological target: mIFNAR2-ECD C94S (extracellular domain of mouse IFNAR2, His-tagged) (mouse) (UniProt O35664); assay: SPR, ProteOn XPR36, His-tagged receptor on HTG chip
[6] = biological target: T2, mIFNAR1-ECD (extracellular domain of …); assay: as above
Protocol: as §1

[7] = biological target: T2, mIFNAR1-ECD (extracellular domain of …); assay: SPR, ProteOn XPR36, His-tagged receptor on HTG chip, Langmuir model, n=9 experiments
Protocol: as §1

mIFNAR2-ECD C94S (extracellular domain of mouse IFNAR2, His-tagged) (mouse), sequence (O35664 22-242, stated change not applied): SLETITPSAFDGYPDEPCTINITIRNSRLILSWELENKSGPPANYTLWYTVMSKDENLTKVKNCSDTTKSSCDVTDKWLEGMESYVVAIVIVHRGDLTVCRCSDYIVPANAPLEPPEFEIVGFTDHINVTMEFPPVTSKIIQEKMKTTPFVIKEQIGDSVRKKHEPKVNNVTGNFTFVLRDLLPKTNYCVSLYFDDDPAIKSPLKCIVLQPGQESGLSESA

Kd [1]: 1.68 nM
Molecule: recombinant murine interferon alpha 1 (rmIFNα1) (from UniProt P01572 24-189) (ligand)

Kd (huIFNAR2 [2]): 0.25 nM
B1: huIFNβ (ligand, human, UniProt P01574 22-187, looked up)
chain: MSYNLLGFLQRSSNFQCQKLLWQLNGRLEYCLKDRMNFDIPEEIKQLQQFQKEDAALTIYEMLQNIFAIFRQDSSSTGWNETIVENLLANVYHQINHLKTVLEEKLEKEDFTRGKLMSSLHLKRYYGRILHYLKAKEYSHCAWTIVRVEILRNFYFINRLTGYLRN
notes: Comparator in the MST measurement; The source of the protein is not clearly stated; also called rhuIFNβ

Kd [3]: 2.45 nM
B2: recombinant murine interferon beta (rmIFNβ) (ligand, UniProt P01575 22-182, looked up)
chain: INYKQLQLQERTNIRKCQELLEQLNGKINLTYRADFKIPMEMTEKMQKSYTAFAIQEMLQNVFLVFRNNFSSTGWNETIVVRLLDELHQQTVFLKTVLEEKQEERLTWEMSSTALHLKSYYWRVQRYLKLMKYNSYAWMVVRAEIFRNFLIIRRLTRNFQN
notes: Printed as 'rmIFN' with the Greek letter lost

Kd (huIFNAR2 [4]): 8190 nM
B3: human interferon epsilon (huIFNε), E. coli expressed and refolded (ligand)
chain: LDLKLIIFQQRQVNQESLKLLNKLQTLSIQQCLPHRKNFLLPQKSLSPQQYQKGHTLAILHEMLQQIFSLFRANISLDGWEENHTEKFLIQLHQQLEYLEALMGLEAEKLSGTLGSDNLRLQVKMYFRRIHDYLENQDYSTCAWAIVQVEISRCLFFVFSLTEKLSKQGRPLNDMKQELTTEFRSPRSA
notes: also called hIFN; rhIFN

fold lower affinity than rmIFNα1 [5]: > 1000 fold
fold lower affinity than the rmIFNβ-IFNAR1-ECD interaction [6]: ~200 fold
Kd [7]: 556 nM
B4: recombinant murine interferon epsilon (rmIFNε) (ligand)
chain: LEPKRIPFQLWMNRESLQLLKPLPSSSVQQCLAHRKNFLLPQQPVSPHQYQEGQVLAVVHEILQQIFTLLQTHGTMGIWEENHIEKVLAALHRQLEYVESLGGLNAAQKSGGSSAQNLRLQIKAYFRRIHDYLENQRYSSCAWIIVQTEIHRCMFFVFRFTTWLSRQDPDP
notes: also called muIFNε; MuIFNε
